# Assay: soluble on expression in E. coli; label from the status in PepcDB or PDB records
row,Sequence,soluble on expression in E. coli
1,MSLTLLALGINHKTAPVSLRERVSFSPDKLDQALDSLLAQPMVQGGVVLSTCNRTELYLSVEERDDLQEALIRWLCDYHNLNEDDLRNSLYWHQDNDAVSHLMRVASGLDSLVLGEPQILGQVKKAFADSQKGHMKASELERMFQKSFSVAKRVRTETDIGASAVSVAFAACTLARQIFESLSTVTVLLVGAGETIELVARHLREHKVQKMIIANRTRERAQILADEVGAEVIALSDIDERLREADIIISSTASPLPIIGKGMVERALKSRRNQPMLLVDIAVPRDVEPEVGKLANAYLYSVDDLQSIISHNLAQREGHHHHHH,not soluble
2,MANECRSLRNMETDGFQVVTEVVTHKLNHIPIFKGDFASLSPKVQRFVAEKAELMNPAGIYICDGSQKEYDDIVDKLVERGVLTPLKAYENNYLCRTDPRDVARVESKTWMVTKDKYDSVCHTPDGVRPIMGQWMSEEQFGVELDSRFPGCMAGRPMYVVPYSMGPIGGPLSKNGIELTDSPYVVLCMRTMTRMGTKVLEALGDNDFVRCIHSVGLPRPVKQKVINHWPCNPEKVMIAHRPKEREIWSFGSGYGGNSILGKKCFALRIACNIGRDEGWLAEHMLIMGVTNPEGEEKFIAAAFPSACGKTNLAMLTPTVPGWKVRVVGDDIAWMKFGADGRLYAINPEAGFFGVAPGTSHKTNAMAMESCRANTIFTNVAETADGEYFWEGLEKELKEAKGYTDEQLKHLEITNWLGERWHIGDEGKAAHPNSRFTAPAKQCPNIHPDWEAPQGVPIDAIVFGGRRPEGVPLVFESFSWEHGILVGALVKSETTAAAEFTGKNVMHDPMAMRPFMGYNYGKYLEHWIKLGKAPHKAPKIFHVNWFRETKDHKFLWPGFGDNIRVLDWILRRVAGGEEEIAIETAIGYVPKRGTINLDGLPRIDWNDLMSIPKDYWVEDVDESRHFLDTQVGSDLPQPIRDELDKLEKRVHAL,not soluble
3,SSAKSAISKEIFAPLDERMLGAVQVKRRTKKKIPFLATGGQGEYLTYICLSVTNKKPTQASITKVKQFEGSTSFVRRSQWMLEQLRQVNGIDPNGDSAEFDLLFENAFDQWVASTASEKCTFFQILHHTCQRYLTDRKPEFINCQSKIMGGNSILHSAADSVTSAVQKASQALNERGERLGRAEEKTEDLKNSAQQFAETAHKLAMKHKC,soluble
4,MQPTPTQRPEAIVHDEKAQLDFARDMSYGDYLHLDELLGAQHPLSPEHNEMLFIVQHQTSELWMKLMLHELRAAIAAIQQDRLQPAFKMLARVSKILEQLVSAWDVLATMTPPEYSALRPYLAHSSGFQSYQYRQIEYLLGNKNAAMLQPHAHRADLLAQVRAAFEAPSLYDEALRFLARSGLAVPAGALQRDWTQPYRADDQVEQAWLTVYRQSERYWNQYQLGEKLTDLEDAFRLWRFRHVTTVERIIGFKRGTGGTSGVTYLRKMLEVVLFPEIWKLRTDLLEHHHHHH,not soluble
5,MYEAKDYKSDQYVRWCPGCGDHAVVVTLQKAMAEIGIPPHQTAVMSGIGCSSRLPYYMNTYGFHTIHGRGAAIATGVKTANPELSVWLASGDGDSLAIGGNHFIHAVRRNIDINAVLFNNRIYGLTKGQYSPTSARGFVSKSSPYGTVEDPFIPAELVLGARGNFFARAIDVDMKTLQECFVASARHRGFAVTEVLVNCVIFNDGTHKDRSHKDIRADRTITLRHGEKMIFGANRDKGIVLEGLKLRAVTIGEDGYTLDDVLVHDKYEQDVTLHHLLAMMGYTDDSMPIALGVIRDVEAPCYDRAVEAQIEEIQQKNPIRKLHDLLIQGDVWEIK,not soluble
6,SVHPALEFSDCYSDSPDFRERLKCYENELEKTNKFLKDVIKDGNNVINTFKEYSLAVQKFSQTLQSFQFDFIGDTLTDDEMNIAESFREFAGLLQDVEEARMMLVQNASDLLIKPLEKFRKEQIGVTKERRKKFEKESEKYYSQLDKHVNLSSKKKETQLQEADEQLDKERQAFYESSVEYVYQIQQVQEKKKFDVVEPVLAFLQSILTLNNLTVEMYTFRNKGTKCNTGEIPFQKVQFCTIQVDISTFMVHFCTFKLYFCTFKIP,soluble
7,MRMILMFDMPTETAEERKAYRKFRKFLLSEGFIMHQFSVYSKLLLNNTANNAMIGRLKVNNPKKGNITLLTVTEKQFARMVYLHGERNTSVANSDSRLVFLGDSYDQDLEHHHHHH,not soluble
8,LLQLNIQNFAIVRSLDIDWQSGMTTITGETGAGKSIAIDALGLCLGDRATTNVVRPNCKKADLAATFEIKKNKMARAWLKQHELVSEHDSECILRRVISAEGRSKSYINGSQVPLVQLKEIGQLLINIHGQHDHQLIVKANQQCRLLDNYANHTPLLSAVKHYAQQWNKLNKELEMLQQSKQQREAEQQLIQYQVTELDEFSLQ,not soluble
9,MEPHKVVPLSKPHPPVVGKVTHHSIELYWDLEQKEKRQGPQEQWLRFSIEEEDPKMHSYGVIYTGYATRHVVEGLEPRTLYKFRLKVTSPSGEYEYSPVVSVATTRE,soluble
10,MKTAIVTDSTAYLPKEVRERLGIRLIPLSVIFGNETYREEIDMTADEFFAKIKQHPTLPTTSQPSVGEFVDLFTAIREEGYEAVVSIHLSSGISGTYQGAVTAGTMVDGLRVYAYDSEISCMAQGFYAIEAAEMAQAGRSPEDIIARLDEMKQTLRAYFMVDDLAHLQRGGRLTGAQAFIGGLLQIKPLLRFENKVIVPFEKIRTRKKAIHRIEELFAEDAEKGVPLKAAIIHANQPDEAHRWRDELSARYPHVEFSISYFGPVIATHVGEGALGLTWYQP,soluble
11,MINRKIGFIGAGKMGSALMQGIIKAGIVQPENIGASDVYEPFLKELQTKLGIRVSTDNTVIVRESDILILAVKPQTLGSVLENLKNEITSEKLVISIAAGVPLSTYEGALLEGTRVVRVMPNIAATVSEAASGISPGKNATPEDMKDALTIFSAVGTAVQVPESLMDAVTGLSGSGPAFIFPVIEAMADGAVLEGMDRKSALTLAAQTVLGAAKMALETGMHPGELKDMVTSPAGTTIQGVHALEEAGIRAAFMNAVIRASERSRELGKKAAALEHHHHHH,soluble
12,MGSDKIHHHHHHMKLPANQEKNQPVPVVKPSSTLEEINQNAAGIDLGSGEHWVCVPPDRADKNVRRFGCFTPDLIAMADWLKECRINTVAMEATGVYWIPVFQVLEAKGFEVKLVNAHHVKTVPGRKTDVLDCQWLQKLHTYGLLSGSFRPEDQVCVLRSYIRQRDTLIKSASAHIQRMQKALIQMNLHLHKVISDVTGLTGMKIIKAIVAGEQDPQVLASLKDPHIKSSTADIAASLTGDYRREHLFVLQQELTLYEIYQQQIIAVDAEIEKCLAYA,not soluble
13,MQDDKKVAFPGDMIATTEEYLPGKNTEEKNGEIIAVKFGQIIRDDINLLISVDTQKKEFTLKKGDIVYGQVVKGEQHRYIVRIVGAFQKGLGLREIDEEMQLSLGIARRPQSDFIAIGDLIRGYVIRTGDFPEISINGNHYGVISAVCLRCRQPLVKRGITLYCENCQRTEIRKMADDYGNVDIFNYENRIQNQVKANGKRRLEHHHHHH,soluble
14,MGSDKIHHHHHHMPLMPTTLCSHAGCNARAVGNGVCRIHKPKAKRQAPNQIKQAEPAKLKRIDHRLSASQRGYDVRWRSARLLFLNDEPLCRHCITQDITKGADVVDHILPHRGNQELFWDQTNWQPLCYPCHSIKTTTVDNKLSDYDIAQLRQGGWGKK,not soluble
15,MKNESIKIFQKKKQVILEKWITIQSQDQGLNNDLITNEDLRVQSEELLYTFIDNLTDNNIENPDSRDFENVLDILSSISISRAKQGYSPRETGFYVYSLKEALLSVLNEEIKDSSVLYTQSMAINKLLDSFTISTFETFIKGREDVIFRQTDEITQISTPVIRVWDGILALPIIGTLDSSRTQVVMESLLQEIVDTGSSIAILDISGVPAVDSLVAQHLIKTVSATRLMGAECIISGIRPEIAQTVVHLGIDLSTIITKATLASALKTAFVMLNLEVNKKQRNKTV,not soluble
16,MDKMLEKFEGSILGLSIGDALGMPTEWFTKEEIAEKYGLIDNFVDPKNKFNGILKAGQYTDDTDQTIAILNSFDVRGFNNDIFIKELIKWYNNNPVGMGPTSTKAIEKLIEGDTTGCDSRTCGSSMRVGPLGLFYFGEYDKLKEITIKATKLTHNNDEAIAGALSIAFFVAESVNNVKSEKSIKRCAKFIEDVSYDFSEKILLINDLNSADEAYELFDTGLPAIECVPSAIATFLRTDTFKDGMISCVNAGGDTDSMGSMYGAIAGAYYGVLNIPELWIAGLQNKDLLVDLSKKLYKLRFKKLEHHHHHH,soluble
17,MDTEKLRRQLIDRITDNYSEYRASLLLKDRQELIDGAGRIADTATVFQHLADRSYKPEELEYLLKFQNPLEVVTEHWADYELMPDVLDALIADTVDRQDDLTLFPLATDAPAQKPESLRKFLNVDLETVLPQIMKQKTAFYQTDLNYALDAMREGATSGDPAKQNFVLIFRQSGVECLNERDMFIGGTRSFNTLQFYHTQTREPVLTYSVELTGDGKDGLRGNLYQQDNHRLAEYAGRTASPYTDVTVTFTGGKEVRLPEKEFYYEKAASLKYLHGSIKEVRNEAEDETVVQGAVKREHDRRREMPRGYFAVHLQALDEQRIQAEADRLSSALTDLKQPNSPDKEKFMVEISVYFLPLASQHDMNRLFEKVRDQVGQTVYITPPDDTHKRYFVMRREERAQEQPERKPSIKAQLSAKPVPGDKPATKTKDREVR,not soluble
18,MGHHHHHHSHMRKNESYLNQPAPPIPIPTLSLMGGCREHFENHWKGRARWLMPVIPALWEAKAGRSPEVRSSKPAWPTWRNPIFTKNTKISQVLELFLNYQSLICALEKQKRQKGSLAIFCWSFQGGCVSKRPDVPSLKSQKPKRKRITGRKRLSKGSWSLLFSNLGRF,soluble
19,PQFSLWKRPVVTAYIEGQPVEVLLDTGADDSIVAGIELGNNYSPKIVGGIGGFINTLEYKNVEIEVLNKKVRATIMTGDTPINIFGRNILTALGMSLNL,soluble
20,MRWKRTLQLLDVHCEGEIGRVVTGGAPKIPGNTVAEQLHWMNTDPQGEALRRFLTLEPRGTPMGSVDLLLPPKHPDAHAAFVILQPDQAHASSGSNSICATTALLESGMVEMQEPETVIILETAAGLVKATATCRDGRCEKVKLTMVPSFVHELDVSIDTPEWGRVTMDISYGGIFYALVDVRQIGLTIEKANAAKLVAAGMTLKDLVNREMTVVHPEIPAISGVAYVMFRDVDADGSIRTCTTMWPGRADRSPCGTGNSANLATLYARGKVKVGDEYKSRSIIGSEFDVGLSAVTEVAGRPAVIPTIAGRGFTFGLHQVGLDPFDPLGDGFAMTDVWGPEAGNI,not soluble
21,MTETKDKQLSRIVLKGFKSIAKCDLEISRVNILIGANGAGKSNFIGFFRMVGQLVEENLQVFVSRQGSPDALLHFGRKTTEHLEFQLYFGNNGYFATLEPTQDNRLMFARESFWWNMSGEHEIGRGHFETKVLTSTRTGIDEYVLSAMQQWRVYHFHDTSESAYIKQPHGINDNAYLRPDARNLASFLYLLRNSYPASYQRIVKTIRLVAPFFGDFYLRPAPQNKEVIELEWFERGQDIPFKAYLLSDGTLRFMCLATVFLQPEDLQPETILVDEPELGLHPYAITVLASLMRTASKQVIVSTQSIELLNQFEAKDVIVVDRSEGSSYLRRLNQGDRIHFTGYSLLEHHHHHH,soluble

# — the DeepSol protein solubility set
